Results on 2 molecules are retold here after patent WO2018083080A2 (dated 2018).

Experiment [1] deals with T1, recombinant human CFP HIS-tagged (human, UniProt P27918 28-469).
T1 construct: Secreted from CHO cells, purified on Ni-NTA and by size exclusion; also called huCFP-HIS; HuCFP-HIS; not shown: HIS tag inserted through the reverse primer (C-terminal)
Briefly: flow cytometry; CFP-HIS on cells. On the technique in general: Flow cytometry measures light scatter and fluorescence of single cells or particles in a stream.

Experiment [2] addresses T1, recombinant human CFP HIS-tagged. The experiment is described as follows: flow cytometry; CFP-HIS on enriched mouse NK cells.

T1 sequence (P27918 28-469): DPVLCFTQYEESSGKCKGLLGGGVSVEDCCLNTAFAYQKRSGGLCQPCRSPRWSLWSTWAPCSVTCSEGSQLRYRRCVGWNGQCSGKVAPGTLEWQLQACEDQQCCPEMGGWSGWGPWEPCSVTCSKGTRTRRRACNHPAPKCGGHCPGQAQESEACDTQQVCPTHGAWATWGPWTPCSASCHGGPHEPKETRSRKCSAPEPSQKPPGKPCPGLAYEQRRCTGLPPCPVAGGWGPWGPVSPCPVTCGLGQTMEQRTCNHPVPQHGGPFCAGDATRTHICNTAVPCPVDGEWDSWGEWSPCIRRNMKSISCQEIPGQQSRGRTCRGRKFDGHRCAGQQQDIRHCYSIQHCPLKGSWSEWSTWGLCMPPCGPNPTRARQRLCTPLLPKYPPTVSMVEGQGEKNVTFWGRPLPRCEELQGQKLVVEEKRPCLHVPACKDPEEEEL

B1: NKp30 on DOMsp30 cells (receptor, UniProt O14931 19-135, looked up)
chain: LWVSQPPEIRTLEGSSAFLPCSFNASQGRLAIGSVTWFRDEVVPGKEVRNGTPEFRGRLAPLASSRFLHDHQAELHIRDVRGHDASIYVCRVEVLGLGVGTGNGTRLVVEKEHPQLG
notes: also called DOMsP cells expressing NKp30
Regarding B1, the binding result in experiment [1] is “no binding (tested: 10ug/ml)”.

B2: mouse NKp46 on Ncr1 WT/WT enriched mouse NK cells (receptor, UniProt Q8C567 17-325, looked up)
chain: QRINTEKETLPKPIIWAKPSIMVTNGNSVNIWCQGAQSASEYQLYFEGSFFALERPKPSRSMNKVRFFISQMTSHTAGIYTCFYQSGELWSKSSNPLKLVVTGLYDTPNLWVYPRPEVTLGENVTFFCQLKTATSKFFLLKERGSNHIQNKYGNIQAEFPMGPVTRAHRGTYRCFGSYNDYAWSFPSEPVTLLITGGVENSSLAPTDPTSSLDYWEFDLSTNESGLQKDSAFWDHTTQNLIRIGLACIILITLVWLLTEDWLSKRKDHEEANRLTNWECRRRWRMQHYFEEEQRNAISMMELKATPGAL
notes: whole, on cells; also called Ncr1 WT/WT NK cells
B2: the binding result in experiment [2] is “binds”.
